{"source": "patent US20250042956A1", "about": "(University of California, published 2025)", "binders": {"B1": {"name": "TRBIP1 (bait of the TRBIP1 IP-MS) (other, not shown: small tags and cut ends)", "chain": "METNPCDMNQLDSDSHLPPRKRLLAGFKKFNSNGINGSSPSDFASSSSTSNSNGSSSASTNVQTHLGNLLSSPFNNDQSPEELVEATRSAAALAVKAAKAARAIANEKALISAKAIAAAKRALELVDSFPKEAMADCKERSPRKNKQKKHVPVELLYSKGQLRDEEDDLARRLHRAIDNTSYPRVLRTSEENGQRYKKQKKNKSVVEGGSSSIIVTGSMKDIAGVVDSDSSYEGLEIARSNRDEADSMLMMEKSGEESNSLVKRRGRVKLKKLPLSICNSRNQENGTSSASPLPVAQPQEDGGAITVIAGSSSWKCQDIKAPECVKQNKAVRS", "notes": "tag and its position not described; also called TRBIP1-1; TRBIP1-2"}, "B2": {"name": "MORC6-FLAG (other, Arabidopsis thaliana, UniProt Q56Y74 1-663, looked up)", "chain": "MSHDRSVNVSHDAVIAKPERGTMLQSFSPRSHGSKGYSLPQDSEENRGSVGQSAGQSSTSVVDQVRSPADDAGVTSSSTICPAPVCRQFWKAGSYNDELSSKSQQPNGKNYLHVHPMFLHSNATSHKWAFGAVAELLDNAVDEIQNGATFVIVDKTTNPRDGATALLIQDDGGGMDPQAMRHCMGFGFSDKKSDSAIGRYGNGFKTSTMRLGADVIVFSRHSKNQTLTQSIGLLSYTYLTRTGHDRIVVPILDYEFNASAGEFKTLQDREHFISSLSILLEWSPFSTEAELLQQFDDVGPHGTKVIIYNMWLNSDAKLELDFDSVAEDILIEGSIKKTGSKIVNDHIASRFSYSLRVYLSILYLRIPETFKIILRGKVVEHHNVADDLMHPQYILYKPQAAGSEEALVVTTIGFLKEAPKVNLHGFCVYHKNRLIMPFWQVINYSSSRGRGVVGVLEANFVEPTHNKQDFEKTVLLQKLENRLKEMTVEYWSCHCVLIGYQVNKKPRLQIPQKVQPAGRQALSPPPGFQAVFPQGNTTSLPRVSTQPVLLEKRKEHPDSVASAALKRKVGNDDFTVPGHIRVEQFIHGSASQSQDIETVKLMEENKKLRAKCLDRKVRSQNLEVKAMNLRSELENYKSEYERLMVELQALDLVKDEHRRNVNT", "notes": "not shown: FLAG tag (3xFLAG-BLRP vector described)"}}, "key": {"AT1G49950.3 TRB1 [1]": {"target": "T1, AT1G49950.3 TRB1 (Arabidopsis thaliana, UniProt Q8VWK4 1-300, limits assumed)", "T1 construct": "Endogenous protein found by mass spectrometry", "T1 sequence": "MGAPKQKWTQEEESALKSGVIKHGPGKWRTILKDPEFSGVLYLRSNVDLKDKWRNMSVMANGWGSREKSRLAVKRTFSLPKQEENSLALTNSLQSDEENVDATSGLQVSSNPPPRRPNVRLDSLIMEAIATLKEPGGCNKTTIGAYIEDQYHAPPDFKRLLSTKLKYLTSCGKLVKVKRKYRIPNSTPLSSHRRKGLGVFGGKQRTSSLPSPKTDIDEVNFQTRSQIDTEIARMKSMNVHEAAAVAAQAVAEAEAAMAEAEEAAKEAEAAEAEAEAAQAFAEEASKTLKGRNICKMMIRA", "assay": "IP-MS rep 2", "method_in_brief": "(§1)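 Ten grams of unopened floral buds from Col-0 wild type and FLAG-tagged transgenic Arabidopsis lines were ground in liquid nitrogen, homogenised in 25 mL IP buffer and filtered through Miracloth. Lysates were incubated with 250 μL anti-FLAG M2 magnetic beads at 4° C for 2 hours, washed and eluted with TBS containing 250 μg/mL 3×FLAG peptides. Eluted proteins were precipitated with trichloroacetic acid and analysed by mass spectrometry to give peptide counts for co-purified proteins.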"}, "AT3G10480.3 NAC050 [2]": {"target": "T2, AT3G10480.3 NAC050 (Arabidopsis thaliana, UniProt Q9SQX9 1-447, limits assumed)", "T2 construct": "Endogenous protein found by mass spectrometry", "T2 sequence (looked up)": "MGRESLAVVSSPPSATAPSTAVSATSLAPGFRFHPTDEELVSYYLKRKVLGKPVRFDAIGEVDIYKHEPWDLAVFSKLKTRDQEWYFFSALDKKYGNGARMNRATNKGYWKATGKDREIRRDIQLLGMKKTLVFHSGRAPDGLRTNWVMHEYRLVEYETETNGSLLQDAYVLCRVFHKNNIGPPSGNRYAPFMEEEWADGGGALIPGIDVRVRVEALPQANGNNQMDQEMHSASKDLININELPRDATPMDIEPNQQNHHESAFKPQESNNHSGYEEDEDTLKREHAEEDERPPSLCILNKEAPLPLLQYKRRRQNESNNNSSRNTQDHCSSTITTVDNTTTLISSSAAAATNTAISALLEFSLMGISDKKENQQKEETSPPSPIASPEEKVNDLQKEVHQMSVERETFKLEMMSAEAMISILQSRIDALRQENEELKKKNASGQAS", "assay": "IP-MS rep 2", "method_in_brief": "as §1"}, "AT2G17540.2 TRBIP2 [3]": {"target": "T3, AT2G17540.2 TRBIP2 (Arabidopsis thaliana)", "T3 construct": "Endogenous protein found by mass spectrometry", "T3 chain": "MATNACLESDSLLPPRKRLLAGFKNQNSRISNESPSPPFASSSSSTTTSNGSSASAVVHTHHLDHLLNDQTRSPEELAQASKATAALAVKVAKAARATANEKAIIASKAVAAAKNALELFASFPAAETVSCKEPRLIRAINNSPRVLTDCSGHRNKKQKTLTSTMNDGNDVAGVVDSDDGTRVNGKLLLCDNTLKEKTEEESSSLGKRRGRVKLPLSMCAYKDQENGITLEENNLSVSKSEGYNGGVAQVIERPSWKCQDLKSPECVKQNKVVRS", "assay": "IP-MS rep 2", "method_in_brief": "as §1"}, "AT5G67580.1 TRB2 [4]": {"target": "T4, AT5G67580.1 TRB2 (Arabidopsis thaliana, UniProt Q9FJW5 1-299)", "T4 construct": "Endogenous protein found by mass spectrometry", "T4 sequence": "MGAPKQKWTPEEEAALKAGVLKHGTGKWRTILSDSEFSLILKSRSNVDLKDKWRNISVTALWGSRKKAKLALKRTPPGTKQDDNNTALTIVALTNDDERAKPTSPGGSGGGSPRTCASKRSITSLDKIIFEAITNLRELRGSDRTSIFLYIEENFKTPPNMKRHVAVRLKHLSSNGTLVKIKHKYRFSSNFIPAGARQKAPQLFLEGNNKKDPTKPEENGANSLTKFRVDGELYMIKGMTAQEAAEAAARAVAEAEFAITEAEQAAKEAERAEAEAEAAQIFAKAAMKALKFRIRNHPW", "assay": "IP-MS rep 2", "method_in_brief": "as §1"}, "AT3G49850.1 TRB3 [5]": {"target": "T5, AT3G49850.1 TRB3 (Arabidopsis thaliana, UniProt Q9M2X3 1-295)", "T5 construct": "Endogenous protein found by mass spectrometry", "T5 sequence": "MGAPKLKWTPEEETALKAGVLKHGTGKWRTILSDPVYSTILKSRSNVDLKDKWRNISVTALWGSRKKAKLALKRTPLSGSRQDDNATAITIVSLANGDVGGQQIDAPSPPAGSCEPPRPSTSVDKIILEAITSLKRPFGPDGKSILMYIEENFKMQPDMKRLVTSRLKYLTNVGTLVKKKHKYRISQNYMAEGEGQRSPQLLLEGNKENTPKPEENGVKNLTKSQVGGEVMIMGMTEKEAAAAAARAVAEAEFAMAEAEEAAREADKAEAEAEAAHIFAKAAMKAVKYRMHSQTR", "assay": "IP-MS rep 2", "method_in_brief": "as §1"}, "AT5G08450.1 HDC1 [6]": {"target": "T6, AT5G08450.1 HDC1 (Arabidopsis thaliana)", "T6 construct": "Endogenous protein found by mass spectrometry", "assay": "IP-MS rep 2", "method_in_brief": "as §1"}, "AT1G49950.3 TRB1 [7]": {"target": "T1, AT1G49950.3 TRB1", "assay": "IP-MS rep 1", "method_in_brief": "as §1"}, "AT3G10480.3 NAC050 [8]": {"target": "T2, AT3G10480.3 NAC050", "assay": "IP-MS rep 1", "method_in_brief": "as §1"}, "AT2G17540.2 TRBIP2 [9]": {"target": "T3, AT2G17540.2 TRBIP2", "assay": "IP-MS rep 1", "method_in_brief": "as §1"}, "AT5G67580.1 TRB2 [10]": {"target": "T4, AT5G67580.1 TRB2", "assay": "IP-MS rep 1", "method_in_brief": "as §1"}, "AT3G49850.1 TRB3 [11]": {"target": "T5, AT3G49850.1 TRB3", "assay": "IP-MS rep 1", "method_in_brief": "as §1"}, "AT5G08450.1 HDC1 [12]": {"target": "T6, AT5G08450.1 HDC1", "assay": "IP-MS rep 1", "method_in_brief": "as §1"}, "PIAL2-Myc": {"target": "T7, PIAL2-Myc (Arabidopsis thaliana, UniProt F4JYG0 1-760)", "T7 construct": "not shown: C-terminal 9XMYC tag and BLRP (pEG302 vector)", "T7 sequence": "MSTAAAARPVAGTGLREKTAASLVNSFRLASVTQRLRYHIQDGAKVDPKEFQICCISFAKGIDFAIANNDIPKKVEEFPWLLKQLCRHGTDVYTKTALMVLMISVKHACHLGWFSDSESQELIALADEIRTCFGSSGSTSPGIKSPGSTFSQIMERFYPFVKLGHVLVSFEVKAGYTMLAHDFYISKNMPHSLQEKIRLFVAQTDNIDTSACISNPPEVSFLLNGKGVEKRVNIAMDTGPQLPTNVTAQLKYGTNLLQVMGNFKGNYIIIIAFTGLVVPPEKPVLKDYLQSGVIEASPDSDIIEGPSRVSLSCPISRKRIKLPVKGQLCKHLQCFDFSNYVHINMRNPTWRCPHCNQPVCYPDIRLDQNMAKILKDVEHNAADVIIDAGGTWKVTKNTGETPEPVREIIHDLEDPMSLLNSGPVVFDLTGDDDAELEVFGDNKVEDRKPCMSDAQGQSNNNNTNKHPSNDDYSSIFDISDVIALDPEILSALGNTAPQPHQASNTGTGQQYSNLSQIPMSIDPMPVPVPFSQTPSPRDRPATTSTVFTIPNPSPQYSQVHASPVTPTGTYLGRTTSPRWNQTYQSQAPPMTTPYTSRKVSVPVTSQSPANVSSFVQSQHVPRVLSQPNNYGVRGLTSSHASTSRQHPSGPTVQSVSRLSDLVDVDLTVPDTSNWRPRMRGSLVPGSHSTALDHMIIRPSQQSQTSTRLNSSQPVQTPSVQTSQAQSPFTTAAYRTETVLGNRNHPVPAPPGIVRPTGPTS", "assay": "co-IP, anti-FLAG, crossed lines", "protocol": "The Co-IP assays in this study were performed by following previous protocol (see e.g., Wang, Science, 2016) with some modifications. 2 grams of 2-week-old seedling tissue were collected from Arabidopsis transgenic lines: JMJ14-FLAG×TRB1-Myc and TRB1-Myc; MORC6-FLAG×PIAL2-Myc and PIAL2-Myc. The samples were ground into fine powder with liquid nitrogen, resuspended with 10 mL IP buffer, and incubate 20 minutes at 4° C. The lysate was centrifuged and filtered through Miracloth for two times, and the supernatant was incubated with 30 μL anti-FLAG M2 Affinity Gel (Millipore) for 2 hours at 4° C. The anti-FLAG beads were washed with IP buffer for a total of 5 times, and the protein was eluted with 40 μL elution buffer (IP buffer containing 100 μg/mL 3×FLAG peptide as final concentration). The supernatant was mixed with 5×SDS loading buffer and subject to Western blot."}}}
{"binder": "B1", "values": [{"measurement": "IP-MS count", "setting": "AT1G49950.3 TRB1 [1]", "result": 15}, {"measurement": "IP-MS count", "setting": "AT3G10480.3 NAC050 [2]", "result": 0}, {"measurement": "IP-MS count", "setting": "AT2G17540.2 TRBIP2 [3]", "result": 0}, {"measurement": "IP-MS count", "setting": "AT5G67580.1 TRB2 [4]", "result": 36}, {"measurement": "IP-MS count", "setting": "AT3G49850.1 TRB3 [5]", "result": 19}, {"measurement": "IP-MS count", "setting": "AT5G08450.1 HDC1 [6]", "result": 2}, {"measurement": "IP-MS count", "setting": "AT1G49950.3 TRB1 [7]", "result": 39}, {"measurement": "IP-MS count", "setting": "AT3G10480.3 NAC050 [8]", "result": 2}, {"measurement": "IP-MS count", "setting": "AT2G17540.2 TRBIP2 [9]", "result": 0}, {"measurement": "IP-MS count", "setting": "AT5G67580.1 TRB2 [10]", "result": 66}, {"measurement": "IP-MS count", "setting": "AT3G49850.1 TRB3 [11]", "result": 31}, {"measurement": "IP-MS count", "setting": "AT5G08450.1 HDC1 [12]", "result": 8}]}
{"binder": "B2", "values": [{"measurement": "binding result", "setting": "PIAL2-Myc", "result": "binds"}]}
